Data from patent US20240238445A1, “INHIBITORS AND USES THEREOF” (NEURACLE SCIENCE CO., LTD., priority 2021, published 2024).

B1: LRRC4B (498-576): LRRC4B ectodomain fragment, amino acids 498-576 of SEQ ID NO: 2 (protein)
chain: QPGEEALQPRGTEKEPPGPTTDGVWGGGRPGDAAGPASSSTTAPAPRSSRPTEKAFTVPITDVTENALKDLDDVMKTTK
B2: LRRC4B (453-576): LRRC4B ectodomain fragment, amino acids 453-576 of SEQ ID NO: 2; FLAG-tagged or hFc-fused (protein)
chain: VSAVDPVAAGGTGSGGGGPGGSGGVGGGSGGYTYFTTVTVETLETQPGEEALQPRGTEKEPPGPTTDGVWGGGRPGDAAGPASSSTTAPAPRSSRPTEKAFTVPITDVTENALKDLDDVMKTTK
modifications: FLAG tag or human Fc
notes: FLAG-tagged or hFc-fused

Experiments:
[1] = system: mouse primary cortical neurons; test: Neurite growth of mouse primary cortical neurons in vitro; assay type: cell-based; conditions: for neurite growth / neurite outgrowth: treated days 1 and 2, assessed day 3, anti-beta-tubulin III, LRRC4B fragment 0.006 to 60 nM, versus control
Description: Next, primary cortical neurons (day 1 postnatal) were cultured in vitro with varying concentrations (0.006 to 60 nM) of the LRRC4B (453-576) protein fragment (i.e., amino acid residues 453-576 of SEQ ID NO: 2; SEQ ID NO: 7), and then at day 3 post-initial culture, the effect on neurite growth was assessed by immunostaining the cells with anti-beta-tubulin III antibody. Cells cultured with DMSO (“Veh”) were used as control.
Mouse hippocampal neurons were treated with LRRC4B peptides at 1 and 2 DIV to determine neurite growth. It was measured by using 3 different parameters, which are total neurites length, number of primary and secondary neurites. After the neurons were stained with beta-tubulin III at 3 DIV, neurites length and branch points were measured using Fiji (Image J, NIH, Bethesda). Individual neurons were selected by hand and these parameters were counted using the Simple neurite tracer plugin. Mouse spinal motor neurons sampled at postnatal day 1 were treated with 10 nM of NS101 and LRRC4B-peptides (dFB-dWY-JM31 and dFB-DY-JM31) at 1 and 2 DIV and immunostained with Tau-5 antibody at 3 DIV. Total neurite length and number of somas in images were measured by Neurphology Image J plugin.

FAM19A5 protein [2] = target: T1, FAM19A5 protein (Homo sapiens, UniProt Q7Z5A7); test: ELISA binding of recombinant FAM19A5 to coated hFc-conjugated LRRC4 family ectodomains, fragments or synthetic peptides; conditions: coated 100 nM/well, FAM19A5 up to 10 nM
Description: Next, to confirm the above co-immunoprecipitation results, an ELISA assay was used to measure the binding of the FAM19A5 protein to either the full-length ectodomain of members of LRRC4 protein family or various LRRC4B ectodomain protein fragments. Specifically, an ELISA plate was coated with one of the following LRRC4B ectodomain protein, which was conjugated to human Fc (100 nM/well): (1) full-length ectodomain of LRRC4 protein (amino acid residues 39-527 of SEQ ID NO: 1) (SEQ ID NO: 4); (2) full-length ectodomain of LRRC4B protein (amino acids 36-576 of SEQ ID NO: 2; i.e., construct #7 in Table 6) (SEQ ID NO: 5); (3) full-length ectodomain of LRRC4C protein (amino acids 45-527 of SEQ ID NO: 3) (SEQ ID NO: 6); (4) LRRC4B ectodomain fragment (amino acids 453-576 of SEQ ID NO: 2; i.e., construct #11 in Table 6) (SEQ ID NO: 7); (5) LRRC4B ectodomain fragment (amino acids 484-576 of SEQ ID NO: 2; i.e., construct #12 in Table 6) (SEQ ID NO: 8); (6) LRRC4B ectodomain fragment (amino acids 482-576 of SEQ ID NO: 2) (SEQ ID NO: 9); (7) LRRC4B ectodomain fragment (amino acids 482-497 of SEQ ID NO: 2) (SEQ ID NO: 10); and (8) LRRC4B ectodomain fragment (amino acids 498-576 of SEQ ID NO: 2; i.e., construct #13 in Table 6) (SEQ ID NO: 11). Then, recombinant FAM19A5 proteins (0.005, 0.01, 0.025, 0.05, 0.1, 0.25, 0.5, 1, 2.5, 5, and 10 nM) were added to the relevant wells, and the plates were incubated at 37° C. for 1 hour. Afterwards, the amount of LRRC4B-bound FAM19A5 protein was detected using HRP-conjugated anti-FAM19A5 (1-65) antibody.
As further confirmation, three synthetic polypeptides comprising amino acids 484-497 of SEQ ID NO: 2 (i.e., YTYFTTVTVETLET; SEQ ID NO: 65) were constructed: (1) FB-16 (GYTYFTTVTVETLETQ; SEQ ID NO: 17), (2) FB-20 ([…]; SEQ ID NO: 18), and (3) FB-28 ([…]; SEQ ID NO: 19). The peptides differed in their total length. The ability of these polypeptides to bind to recombinant FAM19A5 protein was assessed using an ELISA assay as described above.

FAM19A5 protein [3] = target: T1, FAM19A5 protein; test: Co-immunoprecipitation of FLAG-tagged LRRC4 family deletion constructs/fragments with recombinant FAM19A5 in HEK293 cells; assay type: binding; conditions: HEK293 cells expressing FLAG-tagged construct, recombinant FAM19A5 1 μM 30 minutes; IP anti-FLAG, blot anti-FAM19A5 (3-2)
Method in brief: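 HEK293 cells expressing FLAG-tagged LRRC4B deletion constructs or LRRC4C (aa 354-527) / LRRC4 (aa 353-527) fragments were treated with 1 μM recombinant FAM19A5 for 30 min. Lysates immunoprecipitated with anti-FLAG and immunoblotted with anti-FLAG and anti-FAM19A5 (3-2) antibodies.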

[4] = day 3, compared to the control group

T1 sequence (Q7Z5A7 44-132): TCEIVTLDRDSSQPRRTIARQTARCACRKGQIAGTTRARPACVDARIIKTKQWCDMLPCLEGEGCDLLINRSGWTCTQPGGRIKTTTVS

Molecule | neurite growth / neurite outgrowth [1] | binding to FAM19A5 protein (ELISA, in words) (FAM19A5 protein [2]) | binding to FAM19A5 protein (co-immunoprecipitation) (FAM19A5 protein [3]) | neurite length [1, 4] | number of branching points [1, 4] | number of primary and secondary neurites [1, 4]
GYTYFTTVTVETLETQPGEE [FB-20] | Increased neurite outgrowth | able to bind to recombinant FAM19A5 protein with high affinity | – | – | – | –
B1 | – | failed to bind to FAM19A5 | not able to do so | – | – | –
B2 | increased neurite growth in a dose-dependent manner | – | able to bind to the FAM19A5 protein with varying degree | increased neurite length | increased number of branching points | increased number of primary and secondary neurites
